Consider two substances from patent US20120207760A1.

The target of assay [1] is M2 protein of influenza A/Wisconsin/67/05 (H3N2), on inactivated whole virions (Influenza A virus A/Wisconsin/67/2005 (H3N2)). The assay is described as follows: ELISA, positive control antibody on inactivated whole virions. Background: ELISA stands for enzyme-linked immunosorbent assay.
Assay [2] deals with 23 amino acid synthetic M2e peptide of A/Fort Worth/1/50 (influenza A virus A/Fort Worth/1/50 (H1N1)). The assay is described as follows: ELISA on the 23mer M2e peptide (FIG. 14b).

Sequence of TCN-032 (8I10) (antibody) (VH): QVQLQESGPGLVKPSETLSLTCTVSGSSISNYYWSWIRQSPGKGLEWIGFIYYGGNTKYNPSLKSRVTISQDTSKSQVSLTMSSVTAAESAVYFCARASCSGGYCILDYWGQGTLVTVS
Sequence of TCN-032 (8I10) (antibody) (VL): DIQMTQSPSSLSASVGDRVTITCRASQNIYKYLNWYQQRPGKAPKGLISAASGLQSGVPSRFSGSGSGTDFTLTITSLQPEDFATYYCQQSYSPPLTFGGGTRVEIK

TCN-032 (8I10) (antibody): the OD450 in assay [1] was determined as 3.62 OD450. As usually defined, the EC50 is the concentration needed to bring the measured effect to its halfway point. Higher therefore signals a less potent agent. In the case of “chimeric mouse V-region/human IgG1 kappa 14C2 antibody”, in assay [2], the concentration giving a half-maximal response (EC50) is 0.01 µg/mL.
